From US20210380697A1 (HUMMINGBIRD BIOSCIENCE PTE, published 2021)

Key:
[1] = target: T1, His-tagged human VISTA (human, UniProt Q9H7M9 33-194); experiment: BLI epitope binning, human VISTA-His on anti-Penta-His sensor; row = saturating antibody 400 nM; competitor added after it: V4-C1 IgG1 300 nM
T1 construct: Bought recombinant protein with a His tag; also called human VISTA-His recombinant protein; hVISTA
Experimental: (§1) Epitope binning experiments were performed by BLI using the Octet QK384 system (ForteBio). […] Biosensors were subsequently treated with 300 nM competing antibody in
(§2) The following antigen-binding molecules were analysed in the experiment: [1639]

[2] = target: T1, His-tagged human VISTA; experiment: BLI epitope binning, human VISTA-His on anti-Penta-His sensor; row = saturating antibody 400 nM; competitor added after it: IGN175A IgG1 300 nM
Experimental: as §1, §2

Binder	change in response upon addition of the competing antibody [1] [nm]	change in response upon addition of the competing antibody [2] [nm]
IGN175A IgG1 (antibody, V domains shown, Prior-art comparator (WO 2014/197849)) VH: QVQLQQSGAELMKPGASVKISCKATGYTFSTHWIEWVKQRPGHGLEWIGEILPGSGSTSYNEKFKGKATFTADTSSNTAYMQLSSLTSEDSAVYYCARWLLYYYAMDYWGQGTSVTVSS VL: DVLMTQTPLSLPVSLGDQASISCRSSQSIVHSNGNTYLEWYLQKPGQSPKLLIYKLSNRFSGVPDRFSGSGSGTDFTLKISRVEAEDLGVYYCFQGSHFPYTFGGGTKLEIKR	1.44	0.0454
anti-VISTA clone V4-C1 IgG1 (antibody, V domains shown) VH: QVQLQESGPGLVKPSDTLSLTCTVSGYSITSDYAWNWIRQTPGKGLEWIGYITYSGYISYNPSLRSRVTISRDTSKNQFSLKLSSVTAADTAVYSCARALYYPWYFDVWGTGTTVTVSS VL: EIVITQSPATLSLSPGERATLSCRASSSVGYIHWYQQKPGQAPRPLIYATSNRATGIPARFSGSGSGTDNTLTISSLEPEDSAVYYCQQWSSYPPITFGGGTKLEVKR	-0.0158	1.07
